# Experimental data taken from PMC10126205, “A comparative analysis of lipoprotein transport proteins: LolA and LolB from Vibrio cholerae and LolA from Porphyromonas gingivalis” (Scientific Reports, 2023).
# Several values for one entry are separate records, joined by “and”; a condition that tells them apart may be missing. Equal entries are not always repeated.
# B1: LolA from Vibrio cholerae (natural protein)
# chain: APKDTLSERLAMSEGFSATFNQQVLSPEGKVILTGNGKVDIARPSLFRWETETPDENLLVSDGTTLWHFDPFVEQVTLYRAEEALEQTPFVLLTRNKASDWDAYHVEEKGDVFTLTPTALDSNQGRFQITISEKGVVQGFKVIEQDGQQSEFTFSKVKQQKPNASVFNYKVPKGVEVDDQRN
# How the values were obtained:
# [1] = target: LolB from Vibrio cholerae (Vibrio cholerae); test: ITC; LolA injected on LolB-VC (750 µM and 100 µM); MicroCal auto-iTC200, 25 °C, 20 mM HEPES pH 7.5, 150 mM NaCl; heats of LolA on buffer subtracted; single site binding model; no lipoprotein present
# LolA (LolA-PG) = target: T1, LolA (LolA-PG) (Porphyromonas gingivalis, UniProt B2RI10); test: isothermal titration calorimetry (single-site model, […] °C); type: binding
# T1 construct: gene PGN_0486; LolA residues 27–215
# LolB (Escherichia coli) = LolB (Escherichia coli) (UniProt P61320); details: cited from earlier work
# [2] = target: LolB from Vibrio cholerae (Vibrio cholerae (strain A1552)); test: ITC; MicroCal auto-iTC200, 25 °C, 20 mM HEPES pH 7.5, 150 mM NaCl; LolA injected onto LolB, 20 injections, stirring 300 rpm; single site binding model; no lipoprotein present
molecule,measurement,setting,value
LolA from Vibrio cholerae (from UniProt A5F2G9 17-198) (natural protein),Kd,[1],27.5 µM and 32.9 µM
same,stoichiometry N,[1],0.72 and 0.83 and 0.78
N=C(N)SCc1ccc(Cl)c(Cl)c1 [A22],Kd,LolA (LolA-PG),681 ± 44.1 µM
LolA (from UniProt P61316),Kd,LolB (Escherichia coli),30.6 µM
B1,Kd,[2],30.2 µM
